Results published in patent US20200085789A1, “USE OF A PROTEASOME INHIBITOR FOR THE TREATMENT OF CENTRAL NERVOUS SYSTEM (CNS) CANCERS” (Celgene International II Sàrl, priority 2017, published 2020).

Experiment: Adverse events and dose-limiting toxicity (NCI-CTCAE v 4.03), MRZ ± BEV in recurrent grade IV malignant glioma patients
Assay type: in vivo, human
Description: An adverse event (AE) is any noxious, unintended, or untoward medical occurrence that may appear or worsen in a subject during the course of a study. […] Any worsening (i.e., any clinically significant adverse change in the frequency or intensity of a pre-existing condition) should be considered an AE.
The severity/intensity of AEs will be graded based upon the subject's symptoms according to the current active minor version of the Common Terminology Criteria for Adverse Events ( ).

[1] = MRZ 0.7 mg/m^2 + BEV, Cohort 2 (N = 3)
[2] = MRZ 0.8 mg/m^2 + BEV, Cohorts 3 & 4 (N = 27)
[3] = treated with MRZ 0.8 mg/m^2 + BEV (N = 27)

## bevacizumab [reference compound]
[1]
  Grade ≥3 Ataxia related to the labelled drug, patients: 0
  Grade ≥3 Confusional State related to the labelled drug, patients: 0
  Grade ≥3 Delusion related to the labelled drug, patients: 0
  Grade ≥3 Dyspnea related to the labelled drug, patients: 0
  Grade ≥3 Embolism related to the labelled drug, patients: 0
  Grade ≥3 Fall related to the labelled drug, patients: 0
  Grade ≥3 Fatigue related to the labelled drug, patients: 0
  Grade ≥3 Hallucination related to the labelled drug, patients: 0
  Grade ≥3 Headache related to the labelled drug, patients: 0
  Grade ≥3 Hypertension related to the labelled drug, patients: 1
  Grade ≥3 Hyponatremia related to the labelled drug, patients: 0
  Grade ≥3 Insomnia related to the labelled drug, patients: 0
  Grade ≥3 Intracranial Hemorrhage related to the labelled drug, patients: 0
  Grade ≥3 Optic Nerve Disorder related to the labelled drug, patients: 0
  Grade ≥3 Proteinuria related to the labelled drug, patients: 1
[2]
  Grade ≥3 Ataxia related to the labelled drug, patients: 0
  Grade ≥3 Confusional State related to the labelled drug, patients: 0
  Grade ≥3 Delusion related to the labelled drug, patients: 0
  Grade ≥3 Dyspnea related to the labelled drug, patients: 1
  Grade ≥3 Embolism related to the labelled drug, patients: 1
  Grade ≥3 Fall related to the labelled drug, patients: 0
  Grade ≥3 Fatigue related to the labelled drug, patients: 1
  Grade ≥3 Hallucination related to the labelled drug, patients: 0
  Grade ≥3 Headache related to the labelled drug, patients: 1
  Grade ≥3 Hypertension related to the labelled drug, patients: 5
  Grade ≥3 Hyponatremia related to the labelled drug, patients: 0
  Grade ≥3 Insomnia related to the labelled drug, patients: 0
  Grade ≥3 Intracranial Hemorrhage related to the labelled drug, patients: 1
  Grade ≥3 Optic Nerve Disorder related to the labelled drug, patients: 1
  Grade ≥3 Proteinuria related to the labelled drug, patients: 0
Pts on MRZ+BEV
  Anaemia: # Patients, AE related to the labelled drug(s): 0
  Anxiety: # Patients, AE related to the labelled drug(s): 0
  Aphasia: # Patients, AE related to the labelled drug(s): 0
  Appendicitis Perforated: # Patients, AE related to the labelled drug(s): 0
  Asthenia: # Patients, AE related to the labelled drug(s): 0
  Ataxia: # Patients, AE related to the labelled drug(s): 0
  Confusional State: # Patients, AE related to the labelled drug(s): 0
  Constipation: # Patients, AE related to the labelled drug(s): 0
  Convulsion: # Patients, AE related to the labelled drug(s): 0
  Delusion: # Patients, AE related to the labelled drug(s): 0
  Depressed Level of Consciousness: # Patients, AE related to the labelled drug(s): 0
  Diarrhoea: # Patients, AE related to the labelled drug(s): 0
  Dizziness: # Patients, AE related to the labelled drug(s): 0
  Dysarthria: # Patients, AE related to the labelled drug(s): 0
  Dysphagia: # Patients, AE related to the labelled drug(s): 0
  Dysphonia: # Patients, AE related to the labelled drug(s): 10
  Dyspnoea: # Patients, AE related to the labelled drug(s): 0
  Ear Infection: # Patients, AE related to the labelled drug(s): 0
  Epistaxis: # Patients, AE related to the labelled drug(s): 7
  Falls: # Patients, AE related to the labelled drug(s): 0
  Fatigue: # Patients, AE related to the labelled drug(s): 0
  Fracture of Femur: # Patients, AE related to the labelled drug(s): 0
  Hallucination: # Patients, AE related to the labelled drug(s): 0
  Headache: # Patients, AE related to the labelled drug(s): 1
  Hemiparesis: # Patients, AE related to the labelled drug(s): 0
  Hyperglycemia: # Patients, AE related to the labelled drug(s): 0
  Hypertension: # Patients, AE related to the labelled drug(s): 13
  Hypokalemia: # Patients, AE related to the labelled drug(s): 0
  Hyponatremia: # Patients, AE related to the labelled drug(s): 0
  Hypotension: # Patients, AE related to the labelled drug(s): 0
  Infusion Site Pain: # Patients, AE related to the labelled drug(s): 0
  Insomnia: # Patients, AE related to the labelled drug(s): 1
  Lymphocyte Count Decreased: # Patients, AE related to the labelled drug(s): 0
  Muscular Weakness: # Patients, AE related to the labelled drug(s): 0
  Nausea: # Patients, AE related to the labelled drug(s): 0
  Optic Nerve Disorder: # Patients, AE related to the labelled drug(s): 1
  Pyramidal Tract Syndrome: # Patients, AE related to the labelled drug(s): 0
  Tumor Metastasis: # Patients, AE related to the labelled drug(s): 0
  Vision Blurred: # Patients, AE related to the labelled drug(s): 0
  Vomiting: # Patients, AE related to the labelled drug(s): 0
[3]
  Anaemia related to the labelled drug(s): (0.0%)
  Anaemia related to the labelled drug(s), patients: 0
  Ataxia related to the labelled drug(s): (0.0%)
  Ataxia related to the labelled drug(s), patients: 0
  Confusional state related to the labelled drug(s): (3.7%)
  Confusional state related to the labelled drug(s), patients: 1
  Constipation related to the labelled drug(s): (3.7%)
  Constipation related to the labelled drug(s), patients: 1
  Diarrhoea related to the labelled drug(s): (3.7%)
  Diarrhoea related to the labelled drug(s), patients: 1
  Dizziness related to the labelled drug(s): (3.7%)
